Results: the supplement of paper PMC10724198
± gives the standard deviation of the averaged measurements.

Columns and labels:
Saccharomyces cerevisiae [1] = assay: protein stability index of tFT-peptide fusion (C-terminal peptide) (PSI (0-1 scale)); higher = more stable (slower turnover); settings: genetic background: wild type; temperature: 30 C
Saccharomyces cerevisiae [2] = assay: as above
Experimental: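 MPS profiling in S. cerevisiae of the tFT-X12 degron library: putative degron peptides plus stable controls, 12 aa, fused to the C-terminus of a sfGFP-mCherry timer. Cells are FACS-sorted into 8 mCherry/sfGFP bins and deep-sequenced. PSI runs from 0 (unstable) to 1 (stable). Backgrounds are wild type, das1Δ and doa10Δ at 30 °C, and wild type, das1Δ, cdc34-1 and cdc53-1 at 37 °C; 2-3 technical replicates each.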

[3] = genetic background: cdc34-1, temperature: 37 C
[4] = genetic background: cdc53-1, temperature: 37 C
[5] = genetic background: das1 deletion, temperature: 30 C
[6] = genetic background: das1 deletion, temperature: 37 C
[7] = genetic background: doa10 deletion, temperature: 30 C
[8] = genetic background: wild type, temperature: 30 C
[9] = genetic background: wild type, temperature: 37 C
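Note: PSI is a weighted mean of sequencing reads over stability bins, variants kept only with over 10 reads, mCherry proximal and sfGFP distal, peptide attached via GGGS linker.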

Sequence: VLVVWLGICFGY
- protein stability index (Saccharomyces cerevisiae [1]): 0.259 ± 0.011
- protein stability index (Saccharomyces cerevisiae [2]; [3]): 0.166 ± 0.014
- protein stability index (Saccharomyces cerevisiae [2]; [4]): 0.201 ± 0.046
- protein stability index (Saccharomyces cerevisiae [2]; [5]): 0.191 ± 0.033
- protein stability index (Saccharomyces cerevisiae [2]; [6]): 0.37 ± 0.0092
- protein stability index (Saccharomyces cerevisiae [2]; [7]): 0.187 ± 0.0077
- protein stability index (Saccharomyces cerevisiae [2]; [8]): 0.201 ± 0.016
- protein stability index (Saccharomyces cerevisiae [2]; [9]): 0.299 ± 0.0044

Sequence: GFAFFIGLSFAF
- protein stability index (Saccharomyces cerevisiae [1]): 0.475 ± 0.034
- protein stability index (Saccharomyces cerevisiae [2]; [3]): 0.559 ± 0.015
- protein stability index (Saccharomyces cerevisiae [2]; [4]): 0.588 ± 0.012
- protein stability index (Saccharomyces cerevisiae [2]; [5]): 0.459 ± 0.025
- protein stability index (Saccharomyces cerevisiae [2]; [6]): 0.5794 ± 0.0051
- protein stability index (Saccharomyces cerevisiae [2]; [7]): 0.465 ± 0.0074
- protein stability index (Saccharomyces cerevisiae [2]; [8]): 0.461 ± 0.01
- protein stability index (Saccharomyces cerevisiae [2]; [9]): 0.565 ± 0.011

Sequence: VLVVRVLLSDLV
- protein stability index (Saccharomyces cerevisiae [1]): 0.262 ± 0.0089
- protein stability index (Saccharomyces cerevisiae [2]; [3]): 0.178 ± 0.02
- protein stability index (Saccharomyces cerevisiae [2]; [4]): 0.255 ± 0.021
- protein stability index (Saccharomyces cerevisiae [2]; [5]): 0.18 ± 0.028
- protein stability index (Saccharomyces cerevisiae [2]; [6]): 0.36571 ± 8.9e-05
- protein stability index (Saccharomyces cerevisiae [2]; [7]): 0.157 ± 0.012
- protein stability index (Saccharomyces cerevisiae [2]; [8]): 0.17 ± 0.012
- protein stability index (Saccharomyces cerevisiae [2]; [9]): 0.338 ± 0.01

Sequence: RVHFLIVFLCRF
- protein stability index (Saccharomyces cerevisiae [1]): 0.399 ± 0.051
- protein stability index (Saccharomyces cerevisiae [2]; [3]): 0.441 ± 0.012
- protein stability index (Saccharomyces cerevisiae [2]; [4]): 0.4927 ± 0.0037
- protein stability index (Saccharomyces cerevisiae [2]; [5]): 0.369 ± 0.011
- protein stability index (Saccharomyces cerevisiae [2]; [6]): 0.526 ± 0.012
- protein stability index (Saccharomyces cerevisiae [2]; [7]): 0.398 ± 0.024
- protein stability index (Saccharomyces cerevisiae [2]; [8]): 0.361 ± 0.014
- protein stability index (Saccharomyces cerevisiae [2]; [9]): 0.472 ± 0.021

Sequence: VGRVIVIVVAGV
- protein stability index (Saccharomyces cerevisiae [1]): 0.375 ± 0.033
- protein stability index (Saccharomyces cerevisiae [2]; [3]): 0.329 ± 0.012
- protein stability index (Saccharomyces cerevisiae [2]; [4]): 0.395 ± 0.016
- protein stability index (Saccharomyces cerevisiae [2]; [5]): 0.274 ± 0.036
- protein stability index (Saccharomyces cerevisiae [2]; [6]): 0.4541 ± 0.0045
- protein stability index (Saccharomyces cerevisiae [2]; [7]): 0.236 ± 0.0065
- protein stability index (Saccharomyces cerevisiae [2]; [8]): 0.267 ± 0.028
- protein stability index (Saccharomyces cerevisiae [2]; [9]): 0.423 ± 0.022

Sequence: EWAILSLGVMCV
- protein stability index (Saccharomyces cerevisiae [1]): 0.225 ± 0.014
- protein stability index (Saccharomyces cerevisiae [2]; [3]): 0.0657 ± 0.03
- protein stability index (Saccharomyces cerevisiae [2]; [4]): 0.118 ± 0.085
- protein stability index (Saccharomyces cerevisiae [2]; [5]): 0.193 ± 0.013
- protein stability index (Saccharomyces cerevisiae [2]; [6]): 0.2 ± 0.0075
- protein stability index (Saccharomyces cerevisiae [2]; [7]): 0.158 ± 0.0049
- protein stability index (Saccharomyces cerevisiae [2]; [8]): 0.184 ± 0.032
- protein stability index (Saccharomyces cerevisiae [2]; [9]): 0.173 ± 0.011

Sequence: LLFYSYFFFVLY
- protein stability index (Saccharomyces cerevisiae [1]): 0.265 ± 0.0037
- protein stability index (Saccharomyces cerevisiae [2]; [3]): 0.172 ± 0.034
- protein stability index (Saccharomyces cerevisiae [2]; [4]): 0.148 ± 0.0098
- protein stability index (Saccharomyces cerevisiae [2]; [5]): 0.248 ± 0.021
- protein stability index (Saccharomyces cerevisiae [2]; [6]): 0.341 ± 0.015
- protein stability index (Saccharomyces cerevisiae [2]; [7]): 0.312 ± 0.023
- protein stability index (Saccharomyces cerevisiae [2]; [8]): 0.213 ± 0.0032
- protein stability index (Saccharomyces cerevisiae [2]; [9]): 0.286 ± 0.023

Sequence: CVLVLLLRLAFL
- protein stability index (Saccharomyces cerevisiae [1]): 0.4885 ± 0.0022
- protein stability index (Saccharomyces cerevisiae [2]; [3]): 0.5506 ± 0.0053
- protein stability index (Saccharomyces cerevisiae [2]; [4]): 0.5516 ± 0.0013
- protein stability index (Saccharomyces cerevisiae [2]; [5]): 0.44 ± 0.032
- protein stability index (Saccharomyces cerevisiae [2]; [6]): 0.5995 ± 0.0041
- protein stability index (Saccharomyces cerevisiae [2]; [7]): 0.467 ± 0.027
- protein stability index (Saccharomyces cerevisiae [2]; [8]): 0.434 ± 0.0093
- protein stability index (Saccharomyces cerevisiae [2]; [9]): 0.561 ± 0.015

Sequence: FVSVWVFLVSSF
- protein stability index (Saccharomyces cerevisiae [1]): 0.312 ± 0.024
- protein stability index (Saccharomyces cerevisiae [2]; [3]): 0.258 ± 0.025
- protein stability index (Saccharomyces cerevisiae [2]; [4]): 0.381 ± 0.019
- protein stability index (Saccharomyces cerevisiae [2]; [5]): 0.248 ± 0.032
- protein stability index (Saccharomyces cerevisiae [2]; [6]): 0.457 ± 0.014
- protein stability index (Saccharomyces cerevisiae [2]; [7]): 0.194 ± 0.017
- protein stability index (Saccharomyces cerevisiae [2]; [8]): 0.225 ± 0.035
- protein stability index (Saccharomyces cerevisiae [2]; [9]): 0.401 ± 0.039

Sequence: VSIVLHSVPCGG
- protein stability index (Saccharomyces cerevisiae [1]): 0.453 ± 0.035
- protein stability index (Saccharomyces cerevisiae [2]; [3]): 0.514 ± 0.029
- protein stability index (Saccharomyces cerevisiae [2]; [4]): 0.5211 ± 0.0032
- protein stability index (Saccharomyces cerevisiae [2]; [5]): 0.389 ± 0.019
- protein stability index (Saccharomyces cerevisiae [2]; [6]): 0.54459 ± 0.0005
- protein stability index (Saccharomyces cerevisiae [2]; [7]): 0.361 ± 0.011
- protein stability index (Saccharomyces cerevisiae [2]; [8]): 0.392 ± 0.024
- protein stability index (Saccharomyces cerevisiae [2]; [9]): 0.519 ± 0.011

Sequence: GLYLVFMGFVPC
- protein stability index (Saccharomyces cerevisiae [1]): 0.47 ± 0.029
- protein stability index (Saccharomyces cerevisiae [2]; [3]): 0.471 ± 0.019
- protein stability index (Saccharomyces cerevisiae [2]; [4]): 0.52714 ± 4.2e-05
- protein stability index (Saccharomyces cerevisiae [2]; [5]): 0.33 ± 0.053
- protein stability index (Saccharomyces cerevisiae [2]; [6]): 0.575 ± 0.032
- protein stability index (Saccharomyces cerevisiae [2]; [7]): 0.3169 ± 0.0022
- protein stability index (Saccharomyces cerevisiae [2]; [8]): 0.325 ± 0.034
- protein stability index (Saccharomyces cerevisiae [2]; [9]): 0.505 ± 0.0082

Sequence: AEVLCEIVIALR
- protein stability index (Saccharomyces cerevisiae [1]): 0.523 ± 0.043
- protein stability index (Saccharomyces cerevisiae [2]; [3]): 0.582 ± 0.011
- protein stability index (Saccharomyces cerevisiae [2]; [4]): 0.675 ± 0.063
- protein stability index (Saccharomyces cerevisiae [2]; [5]): 0.485 ± 0.04
- protein stability index (Saccharomyces cerevisiae [2]; [6]): 0.583 ± 0.0085
- protein stability index (Saccharomyces cerevisiae [2]; [7]): 0.45 ± 0.019
- protein stability index (Saccharomyces cerevisiae [2]; [8]): 0.48 ± 0.038
- protein stability index (Saccharomyces cerevisiae [2]; [9]): 0.543 ± 0.018

Sequence: YGHLPLLVLFCV
- protein stability index (Saccharomyces cerevisiae [1]): 0.366 ± 0.049
- protein stability index (Saccharomyces cerevisiae [2]; [3]): 0.459 ± 0.013
- protein stability index (Saccharomyces cerevisiae [2]; [4]): 0.509 ± 0.037
- protein stability index (Saccharomyces cerevisiae [2]; [5]): 0.352 ± 0.035
- protein stability index (Saccharomyces cerevisiae [2]; [6]): 0.541 ± 0.013
- protein stability index (Saccharomyces cerevisiae [2]; [7]): 0.211 ± 0.0055
- protein stability index (Saccharomyces cerevisiae [2]; [8]): 0.237 ± 0.023
- protein stability index (Saccharomyces cerevisiae [2]; [9]): 0.399 ± 0.022

Sequence: SWFNLLSILPRD
- protein stability index (Saccharomyces cerevisiae [1]): 0.7305 ± 0.0018
- protein stability index (Saccharomyces cerevisiae [2]; [3]): 0.699 ± 0.022
- protein stability index (Saccharomyces cerevisiae [2]; [4]): 0.7053 ± 0.0039
- protein stability index (Saccharomyces cerevisiae [2]; [5]): 0.7 ± 0.088
- protein stability index (Saccharomyces cerevisiae [2]; [6]): 0.784 ± 0.022
- protein stability index (Saccharomyces cerevisiae [2]; [7]): 0.714 ± 0.029
- protein stability index (Saccharomyces cerevisiae [2]; [8]): 0.683 ± 0.019
- protein stability index (Saccharomyces cerevisiae [2]; [9]): 0.736 ± 0.045

Sequence: LDLSSLRCRYLL
- protein stability index (Saccharomyces cerevisiae [1]): 0.343 ± 0.099
- protein stability index (Saccharomyces cerevisiae [2]; [3]): 0.639 ± 0.058
- protein stability index (Saccharomyces cerevisiae [2]; [4]): 0.725 ± 0.034
- protein stability index (Saccharomyces cerevisiae [2]; [5]): 0.657 ± 0.021
- protein stability index (Saccharomyces cerevisiae [2]; [6]): 0.765 ± 0.021
- protein stability index (Saccharomyces cerevisiae [2]; [7]): 0.185 ± 0.011
- protein stability index (Saccharomyces cerevisiae [2]; [8]): 0.214 ± 0.014
- protein stability index (Saccharomyces cerevisiae [2]; [9]): 0.427 ± 0.0081

Sequence: LFMLHFLAVLRY
- protein stability index (Saccharomyces cerevisiae [1]): 0.308 ± 0.099
- protein stability index (Saccharomyces cerevisiae [2]; [3]): 0.124 ± 0.054
- protein stability index (Saccharomyces cerevisiae [2]; [4]): 0.1407 ± 0.00041
- protein stability index (Saccharomyces cerevisiae [2]; [5]): 0.272 ± 0.037
- protein stability index (Saccharomyces cerevisiae [2]; [6]): 0.3358 ± 0.003
- protein stability index (Saccharomyces cerevisiae [2]; [7]): 0.337 ± 0.017
- protein stability index (Saccharomyces cerevisiae [2]; [8]): 0.242 ± 0.027
- protein stability index (Saccharomyces cerevisiae [2]; [9]): 0.311 ± 0.011

Sequence: SYVVVFVIFCVG
- protein stability index (Saccharomyces cerevisiae [1]): 0.224 ± 0.099
- protein stability index (Saccharomyces cerevisiae [2]; [3]): 0.1826 ± 0.00046
- protein stability index (Saccharomyces cerevisiae [2]; [4]): 0.281 ± 0.028
- protein stability index (Saccharomyces cerevisiae [2]; [5]): 0.206 ± 0.03
- protein stability index (Saccharomyces cerevisiae [2]; [6]): 0.3424 ± 0.0014
- protein stability index (Saccharomyces cerevisiae [2]; [7]): 0.173 ± 0.0049
- protein stability index (Saccharomyces cerevisiae [2]; [8]): 0.214 ± 0.015
- protein stability index (Saccharomyces cerevisiae [2]; [9]): 0.301 ± 0.0081
